Measurements reported in patent US12454527B2, “Conjugate monomethyl auristatin E to obtain a composition for treatment of prostate cancer” (priority 2019, dated 2025).
Several values for one entry are separate records, joined by “and”; a condition that tells them apart may be missing. Equal entries are not always repeated. Entries after “also recorded” stand apart in the source; their conditions may differ. Where two headings read alike, the source gives them in different places. Starred links: 1 amine or outer side, 2 acyl side, 3 side chain; linkers in the order of their positions; H or OH if unused. Non-standard residues stand in square brackets, D forms with d. Residues, ends and D or L forms follow the SMILES beside them. ξ: configuration not given here. *: point of attachment. GluureaLys(ε-3-ClBenzyl) = O=C(O)CC[C@H](NC(=O)N[C@@H](CCCCN(Cc1cccc(Cl)c1)*)C(=O)O)C(=O)O; Dolaproine = CO[C@@H]([C@@H]1CCCN1)[C@@H](C)C(=O)O; Dil = CC[C@H](C)[C@H](NC)[C@@H](CC(=O)O)OC; X1 = O=C(CCCc1cn(CCCN[*:1])nn1)[*:2]; PABC = O=C(OCc1ccc(N[*:1])cc1)[*:2]; X2 = C[C@@H](N*)[C@@H](O)c1ccccc1; Cit = NC(=O)NCCC[C@H](N)C(=O)O; Suc = O=C(CCC(=O)[*:2])[*:1]; NMeV = CN[C@H](C(=O)O)C(C)C; ξV = CC(C)C(N)C(=O)O; Ahx = NCCCCCC(=O)O

What was measured:
[1] = Pharmacokinetics in plasma of rats after a single injection; type: in vivo; conditions: for level at 8 h / level at 10 h / level at 12 h: male, white outbred, rat, plasma
Experimental: The pharmacokinetics study for the Conjugate (I) product in plasma of rabbits and rats after a single injection.
The leporids and rodents are the standard targets for preclinical studies of potential drug products as well as determining the pharmacokinetic parameters. The rabbits and rats are recommended as test systems to study pharmacokinetic properties of pharmaceutical products by the regulatory documents (FIG. 7, FIG. 8).
This study was performed on healthy awake white outbred mature male rats aged about 3 months with body weight of 190-210 g. […] The pharmacokinetic data, determined from this number of test animals, are sufficient to obtain the primary quantitative characteristics of test product distribution and elimination and the calculation of descriptive statistics parameters.
• 1. Conjugate (1) • 2. Solubilizer Pluronic F127—in the amount, five-fold greater than the conjugate amount by weight. • 3, Diluent—Haemodes infusion solution. • Dimethyl sulfoxide—in the amount of 5% of the prepared volume. • Rabbit experiment (see Tables 5, 6), • Rat experiment (see Tables 7, 8).

[2] = Acute toxicity study, single intravenous administration, mice; type: in vivo
From the text: Acute toxicity study of Conjugate (I) product on mice and rats.
• 1. Conjugate (I). • 2. Solubilizer Pluronic F127—in the amount, five-fold greater than the conjugate amount by weight. • 3. Diluent Haemodes infusion solution. • 4. Dimethyl sulfoxide—in the amount of 5% of the prepared volume.
The experiment took white outbred male mice aged about 2 months with body weight of 19-21,g, and also white outbred mature male rats aged about 2 months with body weight 190-210 g.
Acute toxicity study was performed within the intravenous administration. Before the start of the experiment to determine an acute toxicity, the animals were deprived of food and water (mice were deprived for 2 hours, rats—for 10-12 hours), and then weighed. Then each animal received the intravenous drug injection according to the study design, in a volume not exceeding the acceptable single injection volume: 0.5 mL for mice, 2 mL for rats, and fractionally if necessary. The control group of animals received Pluronic solution in Haemodes in the proportion used fort dose preparation of 78 mg/kg for mice and 38 mg/kg for rats. The duration of observation for laboratory animals was 14 days. During this period, visible signs of intoxication were assessed (see Table 9).

[3] = rats N=6, read-out: Concentration in blood plasma, Geometr. mean
[4] = rats N=6, read-out: Concentration in blood plasma, Mean value
[5] = rats N=6, read-out: Concentration in blood plasma, Median
[6] = rats, read-out: Concentration in blood plasma (individual animals)

With `CC[C@H](C)[C@@H]([C@@H](CC(=O)N1CCC[C@H]1[C@H](OC)[C@@H](C)C(=O)N[C@H](C)[C@@H](O)c1ccccc1)OC)N(C)C(=O)[C@@H](NC(=O)[C@H](C(C)C)N(C)C(=O)OCc1ccc(NC(=O)[C@H](CCCNC(N)=O)NC(=O)C(NC(=O)CCCc2cn(CCCNC(=O)[C@H](Cc3ccc(O)cc3)NC(=O)[C@H](Cc3ccccc3)NC(=O)CCC(=O)NCCCCCC(=O)N(CCCC[C@H](NC(=O)N[C@@H](CCC(=O)O)C(=O)O)C(=O)O)Cc3cccc(Cl)c3)nn2)C(C)C)cc1)C(C)C` (stereo partly shown) [Conjugate (I)] ({GluureaLys(ε-3-ClBenzyl)-Ahx-Suc}-FY[X1][ξV][Cit][PABC][NMeV]V[Dil][Dolaproine]-X2) the level at 8 h [1, 3] was 3260 ng/mL, the level at 8 h [1, 4] was 3350 ng/mL and the level at 8 h [1, 5] was 3190 ng/mL. The level at 10 h [1, 3] was 2300 ng/mL, the level at 10 h [1, 4] was 2370 ng/mL and the level at 10 h [1, 5] was 2090 ng/mL. The level at 12 h [1, 3] was 1760 ng/mL, the level at 12 h [1, 4] was 1820 ng/mL and the level at 12 h [1, 5] was 1620 ng/mL. The level at 8 h [1, 6] was 2620 ng/mL, the level at 10 h [1, 6] was 2000 ng/mL and the “Concentration in blood plasma (individual animals)” value (shortened to “Concentration in blood plasma”) ([1]; rats, 1.50 hour) was 8007 ng/mL. The “Concentration in blood plasma” value ([1]; rats, 4.00 hour) was 5834 ng/mL and 5880 ng/mL, the “Concentration in blood plasma” value ([1]; rats, 6.00 hour) was 4247 ng/mL and the AUC0-t ([1]; rats, individual animals) was 60334 ng·h/mL and 45653 ng·h/mL and 95993 ng·h/mL and 110564 ng·h/mL and 83377 ng·h/mL and 57819 ng·h/mL. For the same compound, the “AUC0-∞” value ([1]; rats, individual animals) was 69475 ng·h/mL and 54945 ng·h/mL and 115670 ng·h/mL and 121598 ng·h/mL and 96420 ng·h/mL and 69132 ng·h/mL, the C0 ([1]; rats, individual animals) was 14307 ng/mL and 5351 ng/mL and 25202 ng/mL and 96531 ng/mL and 27501 ng/mL and 15195 ng/mL and the T1/2 ([1]; rats, individual animals) was 5.10 h and 5.00 h and 4.49 h and 4.13 h and 5.14 h. For the same compound, the Vd ([1]; rats, individual animals) was 0.12816 L/kg and 0.20101 L/kg and 0.09361 L/kg and 0.07983 L/kg and 0.09261 L/kg and 0.16076 L/kg, the “Body weight dynamics, M ± SD” value ([2]; male mice, 3 mg/kg, Day 5) was −13.2 ± 5.1 % of initial body weight and the “Body weight dynamics (individual animals)” value ([2]; male mice, 3 mg/kg, Day 5, listed as test drug, 3 mg/kg) was −6.3 % of initial body weight and −19.0 % of initial body weight and −15.4 % of initial body weight and −22.1 % of initial body weight and −11.0 % of initial body weight and −11.4 % of initial body weight and −13.3 % of initial body weight and −13.8 % of initial body weight and −5.6 % of initial body weight and −13.9 % of initial body weight. The “Body weight dynamics, M ± SD” value ([2]; male mice, 3 mg/kg, Day 10) was 9.9 ± 11.7 % of initial body weight, the “Body weight dynamics (individual animals)” value ([2]; male mice, 3 mg/kg, Day 10, listed as test drug, 3 mg/kg) was 0.0 % of initial body weight and 16.8 % of initial body weight and 18.8 % of initial body weight and −9.1 % of initial body weight and 18.6 % of initial body weight and 16.3 % of initial body weight and 13.8 % of initial body weight and 17.9 % of initial body weight and 18.9 % of initial body weight and −9.9 % of initial body weight and the “Body weight dynamics, M ± SD” value ([2]; male mice, 3 mg/kg, Day 14) was 29.1 ± 9.1 % of initial body weight. For the same compound, the “Body weight dynamics (individual animals)” value ([2]; male mice, 3 mg/kg, Day 14, listed as test drug, 3 mg/kg) was 36.1 % of initial body weight and 30.5 % of initial body weight and 32.7 % of initial body weight and 13.9 % of initial body weight and 34.3 % of initial body weight and 35.1 % of initial body weight and 25.7 % of initial body weight and 35.7 % of initial body weight and 35.2 % of initial body weight and 11.9 % of initial body weight, the “Body weight dynamics, M ± SD” value ([2]; male mice, 5 mg/kg, Day 5) was −20.9 ± 7.6 % of initial body weight and the “Body weight dynamics (individual animals)” value ([2]; male mice, 5 mg/kg, Day 5, listed as test drug, 5 mg/kg) was −27.1 % of initial body weight and −14.3 % of initial body weight and −28.2 % of initial body weight and −23.8 % of initial body weight and −26.1 % of initial body weight and −6.0 % of initial body weight and −22.4 % of initial body weight and −12.0 % of initial body weight and −21.0 % of initial body weight and −27.8 % of initial body weight. For the same compound, the “Body weight dynamics, M ± SD” value ([2]; male mice, 5 mg/kg, Day 10) was −4.3 ± 13.0 % of initial body weight, the “Body weight dynamics (individual animals)” value ([2]; male mice, 5 mg/kg, Day 10, listed as test drug, 5 mg/kg) was −6.7 % of initial body weight and −12.9 % of initial body weight and 1.0 % of initial body weight and −20.8 % of initial body weight and 13.9 % of initial body weight and −18.0 % of initial body weight and 16.8 % of initial body weight and −5.2 % of initial body weight and −6.8 % of initial body weight and the “Body weight dynamics, M ± SD” value ([2]; male mice, 5 mg/kg, Day 14) was 20.5 ± 10.5 % of initial body weight. For the same compound, the “Body weight effect (summary)” value ([2]; male mice, all test doses) was “decreased growth rate or decreased body weight regarding the initial one”, the Fatality ([2]; male mice, i.v. 3 mg/kg) was 0 and the Fatality ([2]; male mice, i.v. 5 mg/kg) was 1. The Fatality ([2]; male mice, i.v. 6 mg/kg) was 3, the Fatality ([2]; male mice, i.v. 7 mg/kg) was 10 and the MTD at 14 days ([2]; male, white outbred, mouse, in vivo, iv, mice, single i.v., read-out: Maximum tolerated dose) was 3 mg/kg. For the same compound, the “Toxic effect (summary)” value ([2]; mice, acute i.v.) was “renal damage, decreased motor activity, dose-dependent hindlimb paresis”, the Signs of intoxication ([2]; mice, single i.v. 2 mg/kg) was “No signs of intoxication” and the Signs of intoxication ([2]; mice, single i.v. 3 mg/kg) was 3-4 days - general health deterioration, the occurring hindlimb paresis. For the same compound, the Signs of intoxication ([2]; mice, single i.v. 7 mg/kg) was 3-4 days - general health deterioration, the occurring hindlimb paresis, decrease movement activity, the Signs of intoxication ([2]; mice, single i.v. 8 mg/kg) was 5 days - all animals had disheveled fur, gastrointestinal bleeding, hindlimb paresis. One animal and the Signs of intoxication ([2]; mice, single i.v. 9 mg/kg, listed as test drug, 9 mg/kg) was “The animals demonstrated a shortness of breath right after administration, the next day - a shortness; also recorded: Days 3 (3), 4 (5), 5 (1), 6 (1)”. For the same compound, the Signs of intoxication ([2]; mice, single i.v. 30 mg/kg) was “All animals were observed with a shortness of breath right after administration, developing”, the Signs of intoxication ([2]; mice, single i.v. 45 mg/kg, listed as test drug, 45 mg/kg) was “All animals were observed with a shortness of breath right after administration, developing; also recorded: died during 12 hours” and the Signs of intoxication ([2]; mice, single i.v. 60 mg/kg) was “All animals were observed with a shortness of breath right after administration, developing”. The LD50 at 14 days ([2]; white outbred, mouse, in vivo, iv, male mice, single i.v., read-out: LD50 (median lethal dose)) was 6.3 mg/kg.
